Measurements from US5702926.

System: Bca DNA polymerase
Conditions: unmodified dCTP; 39 units/µl with dCTPalphaS, 40-50 with dCTPalphaBH3; 4 mM Mg, 60 C

activated calf thymus DNA
activity: 152 units/µl
